{"source": "patent US20180186871A1", "about": "(SINGAPORE HEALTH SERVICES PTE, published 2018); note: test concentration or dose not given here", "binders": {"B1": {"name": "YU112-C03 (scFv, not shown: a dimerising Fc or GST)", "scFv": "QVQLVESGGGVVQPGRSLRLSCAASGFTFSSYGMHWVRQAPGKGLEWVAVISYDGSNKYYADSVKGRFTISRDNSKNTLYLQMNSLRAEDTAVYYCAKGGKSYYGFDYWGQGTLVTVSSGSASAPKLEEGEFSEARVDSVMTQSPSSLSASVGDRVTITCRASQAINSYLNWYQQKPGKAPKLLIYAASSLQSGVPSRFSGSGSGTDFTLTISGLQPEDFATYYCQQSYSTPSWTFGQGTKVEIK"}, "B2": {"name": "YU112-H01 (scFv)", "scFv": "QVQLVESGGGVVQPGRSLRLSCAASGFTFGSYGMHWVRQAPGKGLEWVAVISYDGSNKYYADSVKGRFTISRDNSKNTLYLQMNSLRAEDTAVYYCAKGSYYFDYWGQGTLVTVSSGSASAPKLEEGEFSEARVETTLTQSPGTLSLSPGERATLSCRASQSVSSSYLAWYQQKPGQAPRLLIYGASSRATGIPDRFSGSGSGTDFTLTISSLQPDDFATYYCQQSYSTPTWTFGQGTKVEIK"}, "B3": {"name": "YU112-H02 (scFv)", "scFv": "QVQLVESGGGVVQPGRSLRLSCAASGFTFSSYGMHWVRQAPGKGLEWVAVISYDGSNKYYADSVKGRFTISRDNSKNTLYLQMNSLRAEDTAVYYCAKLSGPNGVDYWGQGTLVTVSSGSASAPKLEEGEFSEARVQPVLTQPRSVSGSPGQSVTISCTGTSSDVGGYNYVSWYQQHPGKAPKVMIYDVSKRPSGVPDRFSGSKSGNTASLTISGLQAEDEADYYCCSYAGSYTWVFGGGTKLTVL"}, "B4": {"name": "YU100-B08 (scFv)", "scFv": "EVQLVQSGGGVVQPGRSLRLSCAASGFTFSSYGMHWVRQAPGKGLEWVAVISYDGSNKYYADSVKGRFTISRDNSKNTLYLQMNSLRAEDTAVYYCAKIGATDPLDYWGQGTLVTVSSGSASAPKLEEGEFSEARVQSALTQPASVSGSPGQSITISCTGTSSDVGGYNYVSWYQQHPGKVPRLLIYDVSNRPSGVSTRFSGSKSGNTASLTISGLQGEDEAEYYCSSFTSSTTWVFGGGTKLTVL"}, "B5": {"name": "YU100-A10 (scFv)", "scFv": "EVQLVESGGGVVQPGRSLRLSCAASGFTFSSYGMHWVRQAPGKGLEWVAVISYDGSNKYYADSVKGRFTISRDNSKNTLYLQMNSLRAEDTAVYYCAKIGATDPLDYWGQGTLVTVSSGSASAPKLEEGEFSEARVLPVLTQPASVSGSPGQSITISCTGTSSDVGAYNYVSWYQQHPGKAPELMIYDVSNRPSGVSNRFSGSKSGNTASLTISGLQPEDEADYYCSSFTTSIAWVFGGGTKLTVL"}, "B6": {"name": "YU100-F01 (scFv)", "scFv": "QVQLVQSGGGVVQPGRSLRLSCAASGFTFSSYGMHWVRQAPGKGLEWVAVISYDGSNKYYADSVKGRFTISRDNSKNTLYLQMNSLRAEDTAVYYCAKIGATDPLDYWGQGTLVTVSSGSASAPKLEEGEFSEARVQSALTQPASVSGSPGQSITISCTGTGSDVGAYDYVSWYQQHPGKAPKLMIYDVNNRPSGVSNRFSGSKSGNTASLTISGLQAEDEAEYYCSSFATSISWVFGGGTRLTVL"}, "B7": {"name": "YU100-G10 (scFv)", "scFv": "QVQLVQSGGGVVQPGRSLRLSCAASGFTFSSYGMHWVRQAPGKGLEWVAVISYDGSNKYYADSVKGRFTISRDNSKNTLYLQMNSLRAEDTAVYYCAKIGATDPLDYWGQGTLVTVSSGSASAPKLEEGEFSEARVQSALTQPASVSGSLGQSITMSCTGTRRDVGGYDFVSWYQQYPGKAPKLIIYDVSNRPSGVSNRFTGSKSGNTASLTISGLQAEDEADYYCCSYAGTYTWVFGGGTKVTVL"}, "B8": {"name": "YU100-H04 (scFv)", "scFv": "QVQLVESGGGVVQPGRSLRLSCAASGFTFSSYAMHWVRQAPGKGLEWVAVISYDGSNKYYADSVKGRFTISRDNSKNTLYLQMNSLRAEDTAVYYCARIMGYDYGDYDVVDYWGQGTLVTVSSGSASAPKLEEGEFSEARVQSALTQPASVSGSPGQSITISCTGTSSDIGVYNYVSWYQQHPGKAPKLMIYDVSKRPSGVPDRFSGSKSGNTASLTISGLQAEDEADYYCCSYAGSYTWVFGGGTKLTVL"}, "B9": {"name": "YU112-C05 (scFv, not shown: a dimerising Fc or GST)", "scFv": "EVQLVESGGGVVQPGRSLRLSCAASGFTFSSYAMHWVRQAPGKGLEWVAVISYDGSNKYYADSVKGRFTISRDNSKNTLYLQMNSLRAEDTAVYYCARIMGYDYGDYDVVDYWGQGTLVTVSSGSASAPKLEEGEFSEARVQSALTQPRSVSGSPGQSVTISCTGTISDVGGYNYVSWYQQHPGKAPKLMIYDVTKRPSGVPDRFSGSKSGNTASLTISGLQAEDEAGYYCSSYAGSYTWVFGGGTELTVL"}, "B10": {"name": "YU100-H09 (scFv, not shown: a dimerising Fc or GST)", "scFv": "QVQLVQSGGGVVQPGRSLRLSCAASGFTFSSYAMHWVRQAPGKGLEWVAVISYDGSNKYYADSVKGRFTISRDNSKNTLYLQMNSLRAEDTAVYYCARIMGYDYGDYDVVDYWGQGTLVTVSSGSASAPKLEEGEFSEARVQSALTQPASVSGSPGQSITISCTGTSSDVGGYNYVSWYQQHPGKAPKLMIYDVSNRPSGVSNRFSGSKSGNTASLTISGLQAEDEADYYCCSYAGSYTWVFGGGTKLTVL"}, "B11": {"name": "YU112-F05 (scFv)", "scFv": "EVQLVQSGGGVVQPGRSLRLSCAASGFTFGSYGMHWVRQAPGKGLEWVAVISYDGSNKYYADSVKGRFTISRDNSKNTLYLQMNSLRAEDTAVYYCAKIGATDPLDYWGQGTLVTVSSGSASAPKLEEGEFSEARVQSALTQPRSVSGSPGQSVTISCTGTSSDVGGYNYVSWYQQHPGKAPKLIIYDVNNRPSGVSNRFSASKSGNTASLTISGLQAEDEADYYCNSYTSGSTWVFGGGTKLTVL"}, "B12": {"name": "YU100-G07 (scFv)", "scFv": "QVQLVESGGGVVQPGRSLRLSCAASGFTFSSYGMHWVRQAPGKGLEWVAVISYDGSNKYYADSVKGRFTISRDNSKNTLYLQMNSLRAEDTAVYYCAKIGATDPLDYWGQGTLVTVSSGSASAPKLEEGEFSEARVQSALTQPASVSGSPGQSITISCTGTSSDVGAYDYVSWYQQHPGKAPKLMIYDVTNRPSGVSNRFSGSKSGNTASLTISGLQAEDEADYYCASYTRSSVWVFGGGTKLTVL"}}}
{"target": "T1, human IL-11 (human, UniProt P20809 22-199)", "T1 sequence (looked up)": "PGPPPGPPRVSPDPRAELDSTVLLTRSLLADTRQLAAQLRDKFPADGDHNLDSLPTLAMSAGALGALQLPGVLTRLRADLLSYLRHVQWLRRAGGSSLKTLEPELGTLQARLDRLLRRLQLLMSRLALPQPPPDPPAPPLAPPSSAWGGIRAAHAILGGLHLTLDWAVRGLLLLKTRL", "assay": "cell-based or functional assay", "units": {"MMP2 production (ng/ml), TGFB1-stimulated human atrial fibroblasts, Experiment 1 (NEG 42.7, POS 70.2)": "ng/mL", "MMP2 production (ng/ml), TGFB1-stimulated human atrial fibroblasts, Experiment 2 (NEG 36.2, POS 62.3)": "ng/mL"}}
{"binder": "B1", "MMP2 production (ng/ml), TGFB1-stimulated human atrial fibroblasts, Experiment 1 (NEG 42.7, POS 70.2)": 57.6, "MMP2 production (ng/ml), TGFB1-stimulated human atrial fibroblasts, Experiment 2 (NEG 36.2, POS 62.3)": 53.3}
{"binder": "B2", "MMP2 production (ng/ml), TGFB1-stimulated human atrial fibroblasts, Experiment 1 (NEG 42.7, POS 70.2)": 51.9, "MMP2 production (ng/ml), TGFB1-stimulated human atrial fibroblasts, Experiment 2 (NEG 36.2, POS 62.3)": 47.7}
{"binder": "B3", "MMP2 production (ng/ml), TGFB1-stimulated human atrial fibroblasts, Experiment 1 (NEG 42.7, POS 70.2)": 65.3, "MMP2 production (ng/ml), TGFB1-stimulated human atrial fibroblasts, Experiment 2 (NEG 36.2, POS 62.3)": 58}
{"binder": "B4", "MMP2 production (ng/ml), TGFB1-stimulated human atrial fibroblasts, Experiment 1 (NEG 42.7, POS 70.2)": 55.3, "MMP2 production (ng/ml), TGFB1-stimulated human atrial fibroblasts, Experiment 2 (NEG 36.2, POS 62.3)": 40.6}
{"binder": "B5", "MMP2 production (ng/ml), TGFB1-stimulated human atrial fibroblasts, Experiment 1 (NEG 42.7, POS 70.2)": 52.1, "MMP2 production (ng/ml), TGFB1-stimulated human atrial fibroblasts, Experiment 2 (NEG 36.2, POS 62.3)": 50.1}
{"binder": "B6", "MMP2 production (ng/ml), TGFB1-stimulated human atrial fibroblasts, Experiment 1 (NEG 42.7, POS 70.2)": 52.8, "MMP2 production (ng/ml), TGFB1-stimulated human atrial fibroblasts, Experiment 2 (NEG 36.2, POS 62.3)": 39.9}
{"binder": "B7", "MMP2 production (ng/ml), TGFB1-stimulated human atrial fibroblasts, Experiment 1 (NEG 42.7, POS 70.2)": 54, "MMP2 production (ng/ml), TGFB1-stimulated human atrial fibroblasts, Experiment 2 (NEG 36.2, POS 62.3)": 45.4}
{"binder": "B8", "MMP2 production (ng/ml), TGFB1-stimulated human atrial fibroblasts, Experiment 1 (NEG 42.7, POS 70.2)": 58.5, "MMP2 production (ng/ml), TGFB1-stimulated human atrial fibroblasts, Experiment 2 (NEG 36.2, POS 62.3)": 48.7}
{"binder": "B9", "MMP2 production (ng/ml), TGFB1-stimulated human atrial fibroblasts, Experiment 1 (NEG 42.7, POS 70.2)": 55.2, "MMP2 production (ng/ml), TGFB1-stimulated human atrial fibroblasts, Experiment 2 (NEG 36.2, POS 62.3)": 50.1}
{"binder": "B10", "MMP2 production (ng/ml), TGFB1-stimulated human atrial fibroblasts, Experiment 1 (NEG 42.7, POS 70.2)": 52.9, "MMP2 production (ng/ml), TGFB1-stimulated human atrial fibroblasts, Experiment 2 (NEG 36.2, POS 62.3)": 39.6}
{"binder": "B11", "MMP2 production (ng/ml), TGFB1-stimulated human atrial fibroblasts, Experiment 1 (NEG 42.7, POS 70.2)": 53.9, "MMP2 production (ng/ml), TGFB1-stimulated human atrial fibroblasts, Experiment 2 (NEG 36.2, POS 62.3)": 48.5}
{"binder": "B12", "MMP2 production (ng/ml), TGFB1-stimulated human atrial fibroblasts, Experiment 1 (NEG 42.7, POS 70.2)": 59, "MMP2 production (ng/ml), TGFB1-stimulated human atrial fibroblasts, Experiment 2 (NEG 36.2, POS 62.3)": 49.7}
